Molecular target: recombinant chimeric hLH-R-hCG-β fusion protein (full-length human lutropin hormone receptor, Arg-Ser linker, full-length human chorionic gonadotropin-β) (human)
Test: cell-based or functional assay

recombinant chimeric hLH-R-hCG-β fusion protein (full-length human lutropin hormone receptor, Arg-Ser linker, full-length human chorionic gonadotropin-β) (human), sequence (chain, as listed by the source mutant limits assumed): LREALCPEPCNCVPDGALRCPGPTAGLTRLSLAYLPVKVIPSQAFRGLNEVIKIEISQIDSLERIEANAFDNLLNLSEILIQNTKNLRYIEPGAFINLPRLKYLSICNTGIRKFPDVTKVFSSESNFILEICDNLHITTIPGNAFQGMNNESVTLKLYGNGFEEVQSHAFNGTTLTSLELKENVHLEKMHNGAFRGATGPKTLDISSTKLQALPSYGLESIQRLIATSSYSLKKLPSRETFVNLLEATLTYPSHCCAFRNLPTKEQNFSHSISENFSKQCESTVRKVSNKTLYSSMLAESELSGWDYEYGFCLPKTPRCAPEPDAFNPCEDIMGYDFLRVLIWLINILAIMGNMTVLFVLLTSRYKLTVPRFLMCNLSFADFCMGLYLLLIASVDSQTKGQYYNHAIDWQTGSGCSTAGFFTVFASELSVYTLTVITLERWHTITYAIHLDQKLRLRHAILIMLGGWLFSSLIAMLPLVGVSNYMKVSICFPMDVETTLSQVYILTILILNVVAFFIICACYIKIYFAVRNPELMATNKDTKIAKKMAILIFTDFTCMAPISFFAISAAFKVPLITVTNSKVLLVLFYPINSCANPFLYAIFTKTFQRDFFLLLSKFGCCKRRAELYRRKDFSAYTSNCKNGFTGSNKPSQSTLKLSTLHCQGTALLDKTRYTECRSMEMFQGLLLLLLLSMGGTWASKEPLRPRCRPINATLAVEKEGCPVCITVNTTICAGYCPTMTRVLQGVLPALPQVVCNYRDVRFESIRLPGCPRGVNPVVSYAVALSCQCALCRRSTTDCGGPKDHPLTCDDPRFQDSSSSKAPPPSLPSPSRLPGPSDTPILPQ

## hCG-β component of the chimeric hLH-R-hCG-β protein (full-length human chorionic gonadotropin-β subunit) (from UniProt P0DN86 21-165) (ligand)
  intracellular cAMP in transfected Sf9 cells in the absence of hCG: 13.2 pmol/L
